In US8084213, “Selection” (Domantis Limited):

Key:
scArc-Vk(E5)-HA = scArc-Vk(E5)-HA (Phage P22 / human Vk); test: co-capture PCR; settings: tags: C-terminal Vk(E5) dAb fusion, chain copies: 2 scArc per operator (stated)
Description: Tubes from Strep Thermofast 96-well plates are coated by applying 2 µl of 0.05 mg/ml biotinylated rat anti-HA mAb (clone 3F10, Roche), 0.2 µl of 0.5 mg/ml biotinylated protein L (Pierce), 1 µl of biotinylated 1 mg/ml β-galactosidase or 0.1 µl of 5 mg/ml biotinylated BSA (Sigma) respectively in 50 µl aliquots of PBS and incubating for 3 hours at room temperature. The monoclonal high-affinity α-HA mAb 3F10 recognises the C-terminal HA tag, β-galactosidase and protein L can be expected to interact with the $V_\kappa$(E5) light chain domain, while BSA serves as the negative control. At the end of the incubation the coating solution is removed and the first blocking solution consisting of 150 µl of 10 ng/ml biotinylated BSA (Sigma) in PBS is added to the wells and incubated for 15 minutes. At the end of the incubation the wells are washed three times with 150 µl of PBS and blocked additionally for 30 min at room temperature with buffer C+.
25 µl S30 in vitro translation reactions (EcoPro T7, Novagen) are assembled according to the manufacturer's instructions and supplemented with 1.5 µl of 1.7 mM PCR-amplified template in 0.1 mg/ml RNA and 0.75 µl of 100 mM oxidized glutathione. […]
(§1) The PCR amplification products are analysed by 1% agarose gel electrophoresis in TAE in the presence of ethidium bromide and imaged using GeneGeius Bio Imaging System (Syngene). […]

Vk(E5)-scArc-HA = Vk(E5)-scArc-HA (Phage P22 / human Vk); test: co-capture PCR; recovered also on beta-galactosidase; settings: tags: N-terminal Vk(E5) dAb fusion, C-terminal HA; chain copies: 2 scArc per operator (stated)
Description: The monoclonal high-affinity α-HA mAb 3F10 recognises the C-terminal HA tag, β-galactosidase and protein L can be expected to interact with the $V_\kappa$(E5) light chain domain, while BSA serves as the negative control. At the end of the incubation the coating solution is removed and the first blocking solution consisting of 150 µl of 10 ng/ml biotinylated BSA (Sigma) in PBS is added to the wells and incubated for 15 minutes. At the end of the incubation the wells are washed three times with 150 µl of PBS and blocked additionally for 30 min at room temperature with buffer C+.
25 µl S30 in vitro translation reactions (EcoPro T7, Novagen) are assembled according to the manufacturer's instructions and supplemented with 1.5 µl of 1.7 mM PCR-amplified template in 0.1 mg/ml RNA and 0.75 µl of 100 mM oxidized glutathione. Translation reactions are incubated at 23° C. for 4 hours and diluted with 150 µl of buffer C+ (10 mM Tris, 100 mM KCl, 0.05% Tween 20, 5 mM MgCl_2, 0.1 mM EDTA, 1% w/v BSA) before being applied in 50 µl aliquots to the pre-coated tubes cut from Strep Thermofast 96-well plates (Advanced Biotech) and allowed to bind for 30 min at room temperature. […]
as §1

[1] = target: T1, scArc-HA (pIE3 series, single-chain Arc repressor dimer) (Phage P22); test: co-capture of DNA on anti-HA 3F10 surface, PCR detection; settings: tags: C-terminal HA; chain copies: 2 scArc per operator (stated)
T1 chain: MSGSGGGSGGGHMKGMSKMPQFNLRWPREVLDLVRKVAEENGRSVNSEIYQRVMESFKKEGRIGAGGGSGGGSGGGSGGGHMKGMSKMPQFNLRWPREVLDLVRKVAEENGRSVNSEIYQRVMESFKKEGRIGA
Description: (§2) In a typical solution expression experiment 1 μl of 1.7 nM template in 0.2 mg/ml tRNA is added to 25 μl EcoPro T7 in vitro translation mix Novagen), supplemented with 0.75 μl of 100 mM oxidized glutathione (Sigma), and incubated at 25° C. for four hours. During the translation reaction the streptavidin-coated PCR tubes, cut from Strep Thermofast 96-well plates (Abgene), are first incubated at room temperature for three hours with 50 μl of at least 40 nM biotinylated target protein in PBS. The coating buffer is thereafter removed and any remaining free biotin-binding sites are blocked with a 15 min pulse of 50 μg/ml biotinylated BSA in PBS. The pre-coated wells are thereafter three times washed with PBS and then filled with 100 μl of binding buffer C+ (100 mM KCl, 20 mM Tris, 5 mM MgCl_2, 0.05% Tween 20, 0.05 mM EDTA, 1% BSA). Upon completion of the translation reaction the products are diluted in Buffer C+ and applied to the pre-coated and blocked PCR tubes, allowed to bind for 30 min at room temperature and washed 4 times with 150 μl of Buffer C+. […]

[2] = target: T2, scArc-HA (pIE2 series, single-chain Arc repressor dimer) (Phage P22); test: co-capture of DNA on anti-HA 3F10 surface, PCR detection; buffer C+ 100 mM KCl, 5 mM MgCl2, room temp; settings: tags: C-terminal HA; chain copies: 2 scArc per operator (stated)
T2 chain: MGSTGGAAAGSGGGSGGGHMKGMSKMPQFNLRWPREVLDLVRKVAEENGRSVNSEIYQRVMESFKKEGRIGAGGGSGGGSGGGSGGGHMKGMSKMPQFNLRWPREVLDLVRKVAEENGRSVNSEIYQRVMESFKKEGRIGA
Description: as §2

Measured: binding result

B1: Arc operator, one copy, on linear genetic element (dsDNA)
DNA 1: ATGATAGAAGCACTCTACTAT
DNA 2: ATAGTAGAGTGCTTCTATCAT
binds: all assays above
